Results published in paper PMC5259998.
Values belong to the binder of their own block, whether it stands above or below them.

Biological target: H-OspA, freshly biotinylated (Borrelia bavariensis strain SKT-7.1)
Test: BLI; BLItz; biotinylated H-OspA on streptavidin biosensors (250 μg/mL, 150 s); soluble sdAb at 7.25, 14.5 and 29 μM; 120 s association, 120 s dissociation; PBS-T, 0.02% Tween-20; global fitting (1:1)

koff: 0.0586 s⁻¹
kon: 13700 M⁻¹ s⁻¹
B1: Soluble sdAb produced from PhC11 (VHH)
VHH: QVEVVASGGGLVQAGESLRLSCTASGFTFDNVAAGWFRQAPGKEREGVACISKNGRTTDSADSVKGRFTISRDTAKNTVYLQMDKLKVEDTAEYYCAATYLNTCVLSSPPENIHYWGKGTQVTVS

koff: 0.146 s⁻¹
kon: 185 M⁻¹ s⁻¹
B2: Soluble sdAb produced from PhC12 (VHH)
VHH: RREVVESGGGLVQPGESLRVACAASGFTVSSYIMHWVRQAPGKGLEWVSYIDHGGNTVYGDSVKGRFTISRDNAKNTLALQMNSLKPEDTALYYCVRDGDNTHFVAYDYWGQGTLVTVS
